Test results published in article doi:10.1101/2023.08.07.552313 (bioRxiv, 2023).

Biological target: NEIL1 DNA glycosylase (Homo sapiens (; the 390 aa …, UniProt Q96FI4)
Test: two-hybrid

Sequence of NEIL1 DNA glycosylase (Homo sapiens (Q96FI4 whole entry): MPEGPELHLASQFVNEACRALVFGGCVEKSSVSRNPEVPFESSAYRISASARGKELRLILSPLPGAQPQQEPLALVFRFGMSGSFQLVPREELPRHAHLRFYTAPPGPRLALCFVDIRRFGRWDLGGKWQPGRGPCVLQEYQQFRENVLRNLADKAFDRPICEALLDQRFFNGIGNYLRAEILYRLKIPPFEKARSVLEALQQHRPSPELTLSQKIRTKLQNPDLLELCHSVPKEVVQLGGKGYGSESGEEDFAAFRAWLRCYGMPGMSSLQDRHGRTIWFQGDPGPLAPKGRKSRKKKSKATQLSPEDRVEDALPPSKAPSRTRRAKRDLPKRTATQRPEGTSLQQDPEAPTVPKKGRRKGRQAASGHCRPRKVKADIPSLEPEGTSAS

B1: A5 nanobody (anti-NEIL1 nanobody) (VHH)
VHH: EVQLQASGGGFVQPGGSLRLSCAASGATSERDIMGWFRQAPGKEREFVSAISYEPGGWHYYADSVKGRFTISRDNSKNTVYLQMNSLRAEDTATYYCAWQEIMYGEAYWRYWGQGTQVTVSS
B1: binds.
